Measured values reported in US20050054041.

Columns and labels:
[1] = system: microtubules
[2] = target: microtubules; remark: listed apart in the source

Molecule	microtubule depolymerization (tubulin in supernatant after centrifugation, SDS PAGE), with ATP [1]	microtubule depolymerization (tubulin in supernatant after centrifugation, SDS PAGE), without hydrolysable ATP [1]	MT depolymerization [2]
KinI-3 protein, bacterially expressed and purified (construct not stated)	Track 3 shows an increase in tubulin in the supernatant that indicates depolymerization in the presence of ATP	No depolymerization was observed in the absence of ATP (track 4), in the presence of AMP-PNP (track 5) or in the presence of ADP (track 6)	
KinI-3 construct E166L546 (protein) EISTSLFSPNYLSAILGDCDIPIIQRISHVSGYNYGIPHSCIRQNTSEKQNPWTEMEKIRVCVRKRPLGMREVRRGEINIITVEDKETLLVHEKKEAVDLTQYILQHVFYFDEVFGEACTNQDVYMKTTHPLIQHIFNGGNATCFAYGQTGAGKTYTMIGTHENPGLYALAAKDIFRQLEVSQPRKHLFVWISFYEIYCGQLYDLLNRRKRLFAREDSKHMVQIVGLQELQVDSVELLLEVILKGSKERSTGATGVNADSSRSHAVIQIQIKDSAKRTFGRISFIDLAGSERAADARDSDRQTKMEGAEINQSLLALKECIRALDQEHTHTPFRQSKLTQVLKDSFIGNAKTCMIANISPSHVATEHTLNTLRYADRVKEL			no
KinI-3 construct D143L546 (protein) DDSQYHTKTGILNATAGDSYVQTEISTSLFSPNYLSAILGDCDIPIIQRISHVSGYNYGIPHSCIRQNTSEKQNPWTEMEKIRVCVRKRPLGMREVRRGEINIITVEDKETLLVHEKKEAVDLTQYILQHVFYFDEVFGEACTNQDVYMKTTHPLIQHIFNGGNATCFAYGQTGAGKTYTMIGTHENPGLYALAAKDIFRQLEVSQPRKHLFVWISFYEIYCGQLYDLLNRRKRLFAREDSKHMVQIVGLQELQVDSVELLLEVILKGSKERSTGATGVNADSSRSHAVIQIQIKDSAKRTFGRISFIDLAGSERAADARDSDRQTKMEGAEINQSLLALKECIRALDQEHTHTPFRQSKLTQVLKDSFIGNAKTCMIANISPSHVATEHTLNTLRYADRVKEL			no
KinI-3 construct D183L546 (protein) MDCDIPIIQRISHVSGYNYGIPHSCIRQNTSEKQNPWTEMEKIRVCVRKRPLGMREVRRGEINIITVEDKETLLVHEKKEAVDLTQYILQHVFYFDEVFGEACTNQDVYMKTTHPLIQHIFNGGNATCFAYGQTGAGKTYTMIGTHENPGLYALAAKDIFRQLEVSQPRKHLFVWISFYEIYCGQLYDLLNRRKRLFAREDSKHMVQIVGLQELQVDSVELLLEVILKGSKERSTGATGVNADSSRSHAVIQIQIKDSAKRTFGRISFIDLAGSERAADARDSDRQTKMEGAEINQSLLALKECIRALDQEHTHTPFRQSKLTQVLKDSFIGNAKTCMIANISPSHVATEHTLNTLRYADRVKELLEHHHHHH			yes
KinI-3 construct V195L546 (protein) VSGYNYGIPHSCIRQNTSEKQNPWTEMEKIRVCVRKRPLGMREVRRGEINIITVEDKETLLVHEKKEAVDLTQYILQHVFYFDEVFGEACTNQDVYMKTTHPLIQHIFNGGNATCFAYGQTGAGKTYTMIGTHENPGLYALAAKDIFRQLEVSQPRKHLFVWISFYEIYCGQLYDLLNRRKRLFAREDSKHMVQIVGLQELQVDSVELLLEVILKGSKERSTGATGVNADSSRSHAVIQIQIKDSAKRTFGRISFIDLAGSERAADARDSDRQTKMEGAEINQSLLALKECIRALDQEHTHTPFRQSKLTQVLKDSFIGNAKTCMIANISPSHVATEHTLNTLRYADRVKEL			no
KinI-3 construct V195S566 (protein) MVSGYNYGIPHSCIRQNTSEKQNPWTEMEKIRVCVRKRPLGMREVRRGEINIITVEDKETLLVHEKKEAVDLTQYILQHVFYFDEVFGEACTNQDVYMKTTHPLIQHIFNGGNATCFAYGQTGAGKTYTMIGTHENPGLYALAAKDIFRQLEVSQPRKHLFVWISFYEIYCGQLYDLLNRRKRLFAREDSKHMVQIVGLQELQVDSVELLLEVILKGSKERSTGATGVNADSSRSHAVIQIQIKDSAKRTFGRISFIDLAGSERAADARDSDRQTKMEGAEINQSLLALKECIRALDQEHTHTPFRQSKLTQVLKDSFIGNAKTCMIANISPSHVATEHTLNTLRYADRVKELKKGIKCCTSVTSRNRTSGNSLEHHHHHH			yes
KinI-3 construct E213/L546 (protein) MEKQNPWTEMEKIRVCVRKRPLGMREVRRGEINIITVEDKETLLVHEKKEAVDLTQYILQHVFYFDEVFGEACTNQDVYMKTTHPLIQHIFNGGNATCFAYGQTGAGKTYTMIGTHENPGLYALAAKDIFRQLEVSQPRKHLFVWISFYEIYCGQLYDLLNRRKRLFAREDSKHMVQIVGLQELQVDSVELLLEVILKGSKERSTGATGVNADSSRSHAVIQIQIKDSAKRTFGRISFIDLAGSERAADARDSDRQTKMEGAEINQSLLALKECIRALDQEHTHTPFRQSKLTQVLKDSFIGNAKTCMIANISPSHVATEHTLNTLRYADRVKELLEHHHHHH			yes
KinI-3 construct E233F541 (protein) LGMREVRRGEINIITVEDKETLLVHEKKEAVDLTQYILQHVFYFDEVFGEACTNQDVYMKTTHPLIQHIFNGGNATCFAYGQTGAGKTYTMIGTHENPGLYALAAKDIFRQLEVSQPRKHLFVWISFYEIYCGQLYDLLNRRKRLFAREDSKHMVQIVGLQELQVDSVELLLEVILKGSKERSTGATGVNADSSRSHAVIQIQIKDSAKRTFGRISFIDLAGSERAADARDSDRQTKMEGAEINQSLLALKECIRALDQEHTHTPFRQSKLTQVLKDSFIGNAKTCMIANISPSHVATEHTLNTLRYAD			no
KinI-3 construct E213/S566 (protein) MEKQNPWTEMEKIRVCVRKRPLGMREVRRGEINIITVEDKETLLVHEKKEAVDLTQYILQHVFYFDEVFGEACTNQDVYMKTTHPLIQHIFNGGNATCFAYGQTGAGKTYTMIGTHENPGLYALAAKDIFRQLEVSQPRKHLFVWISFYEIYCGQLYDLLNRRKRLFAREDSKHMVQIVGLQELQVDSVELLLEVILKGSKERSTGATGVNADSSRSHAVIQIQIKDSAKRTFGRISFIDLAGSERAADARDSDRQTKMEGAEINQSLLALKECIRALDQEHTHTPFRQSKLTQVLKDSFIGNAKTCMIANISPSHVATEHTLNTLRYADRVKELKKGIKCCTSVTSRNRTSGNSLEHHHHHH			weak
